Measured values as given in US10512669.
“And” between values parts separate entries of the source, which are not always exact repeats. Equal values may be shown once.

Target: TACE expressed on resting and LPS-stimulated THP-1 cells, P78536
Test: cell-based or functional assay

TACE expressed on resting and LPS-stimulated THP-1 cells, P78536, sequence (P78536 215-824 limits assumed): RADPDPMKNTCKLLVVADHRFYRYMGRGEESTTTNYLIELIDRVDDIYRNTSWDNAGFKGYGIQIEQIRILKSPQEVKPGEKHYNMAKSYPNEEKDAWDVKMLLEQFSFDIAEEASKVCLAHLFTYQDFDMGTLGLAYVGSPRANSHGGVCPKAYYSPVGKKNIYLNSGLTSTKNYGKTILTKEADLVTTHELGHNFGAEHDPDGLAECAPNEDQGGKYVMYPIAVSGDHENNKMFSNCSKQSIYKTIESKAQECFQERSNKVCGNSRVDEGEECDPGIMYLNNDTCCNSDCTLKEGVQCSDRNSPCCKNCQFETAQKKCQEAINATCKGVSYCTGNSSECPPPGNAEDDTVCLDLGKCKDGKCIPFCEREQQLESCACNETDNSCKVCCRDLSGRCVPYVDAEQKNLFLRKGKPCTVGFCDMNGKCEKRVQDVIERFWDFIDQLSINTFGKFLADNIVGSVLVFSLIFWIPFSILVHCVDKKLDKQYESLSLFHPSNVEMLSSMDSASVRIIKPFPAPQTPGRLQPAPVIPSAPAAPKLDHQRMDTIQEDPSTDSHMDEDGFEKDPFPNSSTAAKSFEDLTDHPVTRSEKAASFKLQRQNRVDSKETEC

Binder: GFCRCLCRRGVCRCICTR (modifications not checked) [Rhesus θ-defensin-1 (RTD-1)]
- IC50, inhibition of TACE in cell-based assay on THP-1 cells: 15 µg/ml and 7.4 µM
